“And” between values parts separate entries of the source, which are not always exact repeats. Equal values may be shown once.
Key:
[1] = biological target: Zot binding sites (surface receptor) on human monocytes/macrophages (CD14+) (human)
[2] = biological target: Zot binding sites (surface receptor) on human monocytes/macrophages (CD14+) (human); assay: flow cytometry; […] (10 µl); […]
[3] = biological target: Zot binding sites on human T lymphocytes (CD3+) (human); assay: flow cytometry; […] (10 µl); […]
[4] = biological target: Zot binding sites (surface receptor) on human monocytes/macrophages (CD14+) (human); assay: flow cytometry, increasing concentrations of Zot-FITC on human PBMC
[5] = biological target: Zot binding sites on human T lymphocytes (CD3+) (human); assay: as above
[6] = biological target: Zot binding sites (surface receptor) on human monocytes/macrophages (CD14+) (human); assay: 4-color flow cytometry, 40 µg/ml Zot-FITC, 30 min at 37°C, CD14+ gate
[7] = biological target: Zot binding sites on human T lymphocytes (CD3+) (human); assay: real-time flow cytometry at 37°C, Zot-FITC 40 µg/ml, CD3 gate
[8] = biological target: Zot binding sites (surface receptor) on human monocytes/macrophages (CD14+) (human); assay: flow cytometry, MFI converted with Quantum 26 MESF kit, saturation conditions
[9] = biological target: Zot binding sites on human T lymphocytes (CD3+) (human); assay: as above
[10] = biological target: Zot binding sites (surface receptor) on human monocytes/macrophages (CD14+) (human); assay: real-time flow cytometry at 37°C, Zot-FITC 40 µg/ml, CD14 gate
[11] = biological target: Zot binding sites (surface receptor) on human monocytes/macrophages (CD14+) (human); assay: flow cytometry, MESF calibration, several volunteers
[12] = biological target: Zot binding sites on human T lymphocytes (CD3+) (human); assay: as above

6xHis-Zot fusion protein (purified Zot, unlabeled) (from UniProt P38442 1-399) (ligand)
percent suppression of Zot-FITC mean fluorescence intensity [1]: 24% and 43%

purified Zot (cleaved from MBP-Zot with Factor Xa, Example 1) (from UniProt P38442 9-399) (ligand)
percent decrease of Zot-FITC binding [2]: 33% | percent decrease of Zot-FITC binding [3]: 33%

Zot-FITC (6xHis-Zot fusion protein conjugated to fluorescein isothiocyanate, Examples 4-7) (from UniProt P38442 1-399) (ligand)
concentration at which saturation is reached [4]: 0.5 pM | concentration at which saturation is reached [5]: 0.5 pM | fold binding against T or B lymphocytes [6]: 5 fold and 8 fold | time to reach equilibrium [7]: < 2 min | Zot-binding sites/cell [8]: 106000 sites/cell | Zot-binding sites/cell [9]: 9000 sites/cell | time to reach equilibrium [10]: < 2 min | Zot binding sites/cell (mean of several volunteers) [11]: 105000 sites/cell | Zot binding sites/cell (mean of several volunteers) [12]: 10700 sites/cell
